Assay results: US20230081195A1 (INSTITUTE OF GENETICS AND DEVELOPMENT BIOLOGY CHINESE …, published 2023)

T1: OML4-nLUC (rice; firefly, UniProt Q64M78 1-1001)
T1 construct: Co-expressed in N. benthamiana leaves; Order of the pieces follows the printed name; not shown: N-terminal fragment of firefly luciferase (nLUC)
T1 sequence: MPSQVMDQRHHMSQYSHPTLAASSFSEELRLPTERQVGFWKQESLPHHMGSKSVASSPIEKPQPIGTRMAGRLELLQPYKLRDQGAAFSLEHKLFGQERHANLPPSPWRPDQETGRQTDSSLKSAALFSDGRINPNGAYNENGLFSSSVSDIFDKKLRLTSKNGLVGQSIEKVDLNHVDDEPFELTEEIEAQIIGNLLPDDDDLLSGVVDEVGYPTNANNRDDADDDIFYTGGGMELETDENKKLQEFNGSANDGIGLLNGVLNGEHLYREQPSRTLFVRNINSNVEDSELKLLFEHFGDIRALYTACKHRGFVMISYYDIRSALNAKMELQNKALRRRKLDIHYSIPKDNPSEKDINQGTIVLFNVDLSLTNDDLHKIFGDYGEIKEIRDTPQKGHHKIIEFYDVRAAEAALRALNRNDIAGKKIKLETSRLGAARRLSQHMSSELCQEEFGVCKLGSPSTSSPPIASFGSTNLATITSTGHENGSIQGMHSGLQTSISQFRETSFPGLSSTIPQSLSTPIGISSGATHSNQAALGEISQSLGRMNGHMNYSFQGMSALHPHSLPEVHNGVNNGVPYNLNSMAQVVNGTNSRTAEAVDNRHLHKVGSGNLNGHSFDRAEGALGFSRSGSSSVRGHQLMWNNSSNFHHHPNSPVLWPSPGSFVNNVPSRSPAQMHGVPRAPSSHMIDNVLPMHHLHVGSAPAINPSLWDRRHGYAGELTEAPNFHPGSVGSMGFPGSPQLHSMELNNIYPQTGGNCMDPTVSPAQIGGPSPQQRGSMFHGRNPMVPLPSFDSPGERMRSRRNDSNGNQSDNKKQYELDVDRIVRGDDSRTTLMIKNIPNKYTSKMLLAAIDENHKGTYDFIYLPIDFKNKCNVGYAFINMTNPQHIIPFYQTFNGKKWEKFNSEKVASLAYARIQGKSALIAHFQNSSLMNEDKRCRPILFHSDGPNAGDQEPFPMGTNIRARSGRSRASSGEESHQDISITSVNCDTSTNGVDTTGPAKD

T2: OML4-Flag
T2 chain: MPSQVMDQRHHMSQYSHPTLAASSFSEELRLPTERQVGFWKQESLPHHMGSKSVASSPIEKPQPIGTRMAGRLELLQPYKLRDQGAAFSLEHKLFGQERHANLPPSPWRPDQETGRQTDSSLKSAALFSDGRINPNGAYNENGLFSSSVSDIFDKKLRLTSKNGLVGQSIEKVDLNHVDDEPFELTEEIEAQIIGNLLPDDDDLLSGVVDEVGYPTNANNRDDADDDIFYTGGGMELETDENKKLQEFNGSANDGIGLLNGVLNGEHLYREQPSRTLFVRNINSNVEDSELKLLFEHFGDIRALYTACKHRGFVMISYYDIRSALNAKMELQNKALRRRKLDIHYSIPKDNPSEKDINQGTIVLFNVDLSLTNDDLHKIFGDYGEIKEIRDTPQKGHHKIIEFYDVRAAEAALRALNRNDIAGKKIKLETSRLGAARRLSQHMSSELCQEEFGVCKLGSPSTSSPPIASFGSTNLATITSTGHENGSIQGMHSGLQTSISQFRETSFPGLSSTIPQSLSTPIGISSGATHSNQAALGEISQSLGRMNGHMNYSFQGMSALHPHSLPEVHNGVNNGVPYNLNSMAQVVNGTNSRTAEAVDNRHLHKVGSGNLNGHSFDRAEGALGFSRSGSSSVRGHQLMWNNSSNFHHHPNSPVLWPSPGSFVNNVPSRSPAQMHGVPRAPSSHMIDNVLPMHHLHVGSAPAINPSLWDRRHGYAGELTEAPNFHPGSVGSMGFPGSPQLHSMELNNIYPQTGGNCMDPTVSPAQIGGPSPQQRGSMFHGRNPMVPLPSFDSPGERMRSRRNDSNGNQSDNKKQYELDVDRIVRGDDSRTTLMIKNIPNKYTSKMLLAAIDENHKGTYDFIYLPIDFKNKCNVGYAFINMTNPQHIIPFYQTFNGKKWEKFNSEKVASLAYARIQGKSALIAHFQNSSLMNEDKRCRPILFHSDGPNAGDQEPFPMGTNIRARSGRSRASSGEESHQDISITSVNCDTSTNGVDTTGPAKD

T3: cOML4-Flag
T3 chain: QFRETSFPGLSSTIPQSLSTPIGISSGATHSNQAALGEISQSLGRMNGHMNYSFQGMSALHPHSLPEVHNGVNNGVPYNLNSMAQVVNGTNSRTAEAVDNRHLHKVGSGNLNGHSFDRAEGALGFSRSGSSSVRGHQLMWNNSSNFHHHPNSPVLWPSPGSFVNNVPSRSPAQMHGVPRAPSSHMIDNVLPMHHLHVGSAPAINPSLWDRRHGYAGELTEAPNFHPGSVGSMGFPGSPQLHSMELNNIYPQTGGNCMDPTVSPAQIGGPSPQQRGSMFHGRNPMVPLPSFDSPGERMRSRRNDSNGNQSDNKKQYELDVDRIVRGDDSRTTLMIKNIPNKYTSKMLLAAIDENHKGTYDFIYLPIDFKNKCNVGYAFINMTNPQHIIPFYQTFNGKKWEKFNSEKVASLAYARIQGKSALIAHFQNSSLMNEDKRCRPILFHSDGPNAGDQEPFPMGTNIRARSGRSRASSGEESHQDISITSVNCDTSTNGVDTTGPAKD

T4: nOML4-Flag
T4 chain: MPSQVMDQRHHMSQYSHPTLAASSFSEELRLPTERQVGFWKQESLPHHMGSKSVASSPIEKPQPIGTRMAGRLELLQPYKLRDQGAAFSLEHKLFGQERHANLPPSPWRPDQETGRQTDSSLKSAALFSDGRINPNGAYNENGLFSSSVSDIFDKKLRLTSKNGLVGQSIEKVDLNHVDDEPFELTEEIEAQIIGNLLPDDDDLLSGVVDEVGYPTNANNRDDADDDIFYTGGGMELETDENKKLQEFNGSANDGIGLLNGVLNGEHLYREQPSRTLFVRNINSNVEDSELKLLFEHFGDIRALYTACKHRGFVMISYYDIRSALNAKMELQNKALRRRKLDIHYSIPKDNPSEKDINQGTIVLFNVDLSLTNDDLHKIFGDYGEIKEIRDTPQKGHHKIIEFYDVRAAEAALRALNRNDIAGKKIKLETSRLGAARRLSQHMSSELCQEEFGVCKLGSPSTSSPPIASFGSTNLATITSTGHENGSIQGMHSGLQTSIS


Assays:
OML4-nLUC = target: T1, OML4-nLUC; assay: firefly luciferase complementation imaging, co-expression in N. benthamiana leaves
Experimental: (A) OML4 interacts with GSK2 in yeast cells. Yeast cells were cultured on SD/-Trp-Leu or SD/-Trp-Leu-His-Ade media. (B) OML4 associates with GSK2 in N. benthamiana. OML4-nLUC and GSK2-cLUC were co-expressed in N. benthamiana leaves. Luciferase activity was observed 48 hours after infiltration. The range of luminescence intensity was scaled by the pseudocolor bar. (C) Bimolecular fluorescence complementation (BiFC) assays shown that OML4 interacts with GSK2 in N. benthamiana. OML4-cYFP was coexpressed with GSK2-nYFP in leaves of N. benthamiana. (D) OML4 binds GSK2 in vitro. GSK2-GST was incubated with OML4-MBP and pulled down by OML4-MBP and detected by immunoblot with anti-GST antibody. IB: immunoblot. (E) Interaction between OML4 and GSK2 in the Co-IP assays. Anti-MYC beads were used to immunoprecipitate GSK2-GFP proteins. Gel blots were probed with anti-MYC or anti-GFP antibody. Bars: 50 μm in C.
We next verified the interaction between OML4 and GSK2 in plant cells using the firefly luciferase (LUC) complementation imaging assay (FIG. 5B). The OML4-nLUC and GSK2-cLUC were transformed and co-expressed in N. benthamiana leaves. […] We then performed bimolecular fluorescence complementation (BiFC) assay to test the interaction between OML4 and GSK2 in plant cells (FIG. 5C). […]

OML4-Flag = target: T2, OML4-Flag
cOML4-Flag = target: T3, cOML4-Flag
nOML4-Flag = target: T4, nOML4-Flag

Row | binding result (OML4-nLUC) | Binder | phosphorylation, phos-tag SDS-PAGE (cOML4(S607A)-FLAG) | phosphorylation level, phos-tag SDS-PAGE (OML4S105A, S607A-MBP) | phosphorylation, in vitro kinase assay, phos-tag SDS-PAGE (OML4-Flag) | phosphorylation, in vitro kinase assay, phos-tag SDS-PAGE (cOML4-Flag) | phosphorylation, phos-tag SDS-PAGE (nOML4(S105A)-FLAG) | phosphorylation, in vitro kinase assay, phos-tag SDS-PAGE (nOML4-Flag)
1 | no binding | cLUC (other, firefly, UniProt P08659 398-550, looked up, Control of the luciferase complementation imaging assay) MSGYVNNPEATNALIDKDGWLHSGDIAYWDEDEHFFIVDRLKSLIKYKGYQVAPAELESILLQHPNIFDAGVAGLPDDDAGELPAAVVVLEHGKTMTEKEIVDYVASQVTTAKKLRGGVVFVDEVPKGLTGKLDARKIREILIKAKKGGKSKL | – | – | – | – | – | –
2 | – | GSK2-GST (protein) MDQPAPAPEPMLLDAQPPAAVACDKKQQEGEAPYAEGNDAVTGHIISTTIGGKNGEPKRTISYMAERVVGTGSFGIVFQAKCLETGETVAIKKVLQDRRYKNRELQLMRAMDHPNVISLKHCFFSTTSRDELFLNLVMEYVPETLYRVLKHYSNANHRMPLIYVKLYMYQLFRGLAYIHTVPGVCHRDVKPQNVLVDPLTHQVKLCDFGSAKTLVPGEPNISYICSRYYRAPELIFGATEYTTSIDIWSAGCVLAELLLGQPLFPGESAVDQLVEIIKVLGTPTREEIRCMNPNYTEFRFPQIKAHPWHKVFHKRMPPEAIDLASRLLQYSPSLRCTALDACAHPFFDELREPNARLPNGRPFPPLFNFKHELANSSQELISRLIPEHVRRQATHNFFNTGS | S(105) and S(607) partially influence the phosphorylation of OML4 | Mutations of the two aforementioned Ser residues to Ala reduced the phosphorylation level of OML4, although OML4^S105A,S607A was still phosphorylated by GSK2 | The phosphorylated OML4-Flag, nOML4-Flag and cOML4-Flag were detected in the presence of GSK2-GST, while the phosphorylated OML4-Flag, nOML4-Flag and cOML4-Flag were not found in the absence of GSK2-GST | The phosphorylated OML4-Flag, nOML4-Flag and cOML4-Flag were detected in the presence of GSK2-GST, while the phosphorylated OML4-Flag, nOML4-Flag and cOML4-Flag were not found in the absence of GSK2-GST | S(105) and S(607) partially influence the phosphorylation of OML4 | The phosphorylated OML4-Flag, nOML4-Flag and cOML4-Flag were detected in the presence of GSK2-GST, while the phosphorylated OML4-Flag, nOML4-Flag and cOML4-Flag were not found in the absence of GSK2-GST
